PMC4585773, “The C-terminus hot spot region helps in the fibril formation of bacteriophage-associated hyaluronate lyase (HylP2)” (Scientific Reports, 2015)

B1: HylP_(M179V,M181V) (enzyme, Streptococcus pyogenes bacteriophage, UniProt P15316 1-371, looked up)
chain: MTENIPLRVQFKRMSADEWARSDVILLEGEIGFETDTGFAKFGDGQNTFSKLKYLTGPKGPKGDTGLQGKTGGTGPRGPAGKPGTTDYDQLQNKPDLGAFAQKEETNSKITKLESSKADKSAVYSKAESKIELDKKLSLTGGIVTGQLQFKPNKSGIKPSSSVGGAINIDMSKSEGAAVVVYTNKDTTDGPLMILRSDKDTFDQSAQFVDYSGKTNAVNIVMRQPSAPNFSSALNITSANEGGSAMQIRGVEKALGTLKITHENPNVEAKYDENAAALSIDIVKKQKGGKGTAAQGIYINSTSGTAGKMLRIRNKNEDKFYVGPDGGFHSGANSTVAGNLTVKDPTSGKHAATKDYVDEKIAELKKLILKK
notes: hyaluronate lyase HylP of a Streptococcus pyogenes bacteriophage, residues 1-371, with M179V and M181V; made from the vector construct of full length HylP; Generated from the vector construct of m2; also called hot spot double mutant of HylP; source: E. coli BL21 (DE3), purified
B2: bacteriophage-associated hyaluronate lyase HylP2 (enzyme, Streptococcus pyogenes bacteriophage, UniProt Q54699 1-337, looked up)
chain: MSENIPLRVQFKRMKAAEWARSDVILLESEIGFETDTGFARAGDGHNRFSDLGYISPLDYNLLTNKPNIDGLATKVETAQKLQQKADKETVYTKAESKQELDKKLNLKGGVMTGQLKFKPAATVAYSSSTGGAVNIDLSSTRGAGVVVYSDNDTSDGPLMSLRTGKETFNQSALFVDYKGTTNAVNIAMRHATTPNFSSALNITSGNENGSAMQLRGSEKALGTLKITHENPSIGADYDKNAARYPLILSKRQNGAGTAAQGIYINSTSGTTGKLLRIRNLSDDKFYVKSDGGFYAKETSQIDGNLKLKDPTANDHAATKAYVDKAISELKKLILKK
notes: hyaluronate lyase HylP2 encoded by a Streptococcus pyogenes bacteriophage, full length, residues 1-337; also called HylP2_(1-337); phage hyaluronate lyase; source: E. coli BL21 (DE3), purified

Legend:
[1] = target: the molecule itself; assay: thioflavin T fluorescence kinetics; pH 5, 5 uM protein, 10 uM ThT, emission at 480 nm against time, seeded with preformed HylP2 fibrils; step: the native enzyme to fibrils
[2] = target: the molecule itself; assay: SEC; Superdex 200 HR 10/300, 25 °C, pH 5, 0.3 ml/min; step: the native enzyme to high molecular weight aggregates (void volume), compared with pH 7; no seeds

Row | Protein | binding result [1] | binding result [2]
1 | B1 | binds | –
2 | B2 | – | binds
